According to the supplement of paper PMC12338614:

B1: library; numbered along this chain (parent)
chain: MEVVDPQQLGMFTEGELMSVGMDTFIHRIDSTEVIYQPRRKRAKLIGKYLMGDLLGEGSYGKVKEVLDSETLCRRAVKILKKKKLRRIPNGEANVKKEIQLLRRLRHKNVIQLVDVLYNEEKQKMYMVMEYCVCGMQEMLDSVPEKRFPVCQAHGYFCQLIDGLEYLHSQGIVHKDIKPGNLLLTTGGTLKISDLGVAEALHPFAADDTCRTSQGSPAFQPPEIANGLDTFSGFKVDIWSAGVTLYNITTGLYPFEGDNIYKLFENIGKGSYAIPGDCGPPLSDLLKGMLEYEPAKRFSIRQIRQHSWFRKKHPPAEAPVPIPPSPDTKDRWRSMTVVPYLEDLHGADEDEDLFDIEDDIIYTQDFTVPGQVPEEEASHNGQRRGLPKAVCMNGTEAAQLSTKSRAEGRAPNPARKACSASSKIRRLSACKQQ

Variants of: B1
Experiment: STK11 functional score (HeLa growth suppression), rescaled enrichment; synonymous median = 1, nonsense median = 0 (normalised score)
Details: with HeLa; variant type: missense
Method in brief: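 The values are functional scores: wild-type-corrected log ratios of post- versus pre-selection abundance, rescaled to synonymous and nonsense medians, merged over codons and replicate transfections, and carrying bootstrapped error. They derive from codon-randomised (POPCode), codon-optimised STK11 libraries that Bxb1 integrated at an AAVS1 landing pad in HeLa, with three transfections for each of three regions. Sequencing of tiled gDNA amplicons ran on NextSeq, at ~2 million reads per tile.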

STK11 functional score, by site and new letter:
R405: S 1.54, L 1.59, V 1.62, G 1.48, H 1.59, T 1.24, Y 0.397, N 1.33, I 1.6, M 1.6, D 0.895, K 1.33, P 1.27, C 1.3, F 1.59
T402: Y 1.43, P 1.54, N 0.935, W 1.44, S 1.31, M 1.23, V 0.686, L 1.23, K 1.3
K423: V 1.28, N 1.52, A 0.687, W 1.49, Q 0.701, E 1.62, Y 1.41, H 0.899, T 1.57, I 1.25, R 1.17, G 1.56, C 1.58, D 1.14, S 1.56, F 1.07, L 1.45
K416: Q 1.46, N 0.923, L 0.986, P 1.61, C 1.14, I 1.55, Y 1.2, D 1.61, R 1.54, S 1.55, T 1.37, V 1.39, G 1.55, M 1.67, F 0.683, W 0.693, H 1.42
E407: I 1.61, P 1.6, D 1.56, R 1.52, F 1.26, A 1.52, C 1.21, K 1.55, L 0.778, S 1.57, Q 0.809, M 1.58, G 0.689, T 1.61, W 0.194, V 1.38
R409: M 1.15, V 1.22, C 1.28, F 0.845, I 1.24, W 1.42, E 1.57, S 1.02, A 1.49, N 1.55, L 1.02, G 1.25, P 1.57, K 1.39, T 1.47, D 1.09, Y 1.53
A410: C 1.33, K 1.6, D 1.17, S 1.4, Q 1.21, M 0.531, W 1.68, E 1.34, Y 1.38, T 0.749, I 1.54, R 1.6, G 1.23, V 1.32, F 1.4, P 0.257, L 1.42, N 1.32, H 1.23
K403: V 0.598, I 1.04, H 1.53, Q 1.61, M 0.00927, G 1.46, S 0.892, N 1.42, T 1.19, A 1.6, R 1.03, W 1.54, L 1.25, F 1.2, D 1.53, C 0.656, Y 1.59
A420: V 1.52, R 1.51, L 1.61, G 1.52
P413: Y 1.47, K 1.55, G 1.56, D 1.6, W 0.886, N 1.6, I 1.56, M 1.53, R 1.49, E 1.59, C 1.17, A 1.5, V 1.4, H 1.61, L 1.31, S 1.46, T 1.44
R415: N 1.58, C 1.25, L 1.61, S 1.5, W 1.5, V 1.57, K 1.17, Y 1.49, F 0.952, D 1.43, G 1.53, H 1.6, M 1.4, E 1.48, T 0.914, I 0.924
C418: L 1.46, T 1.58, H 1.17, S 1.51, V 1.62, I 1.41, G 1.61, E 1.58, A 1.62, Y 1.6, R 1.54, D 1.57, M 1.54
P411: N 1.55, S 1.23, R 0.986, I 1.55, E 1.61, F 0.906, M 1.58, W 0.581, L 1.16, K 1.57, V 1.62, D 1.59, G 1.14, A 1.04
S419: G 1.58, H 1.63, K 1.39, N 1.54, A 1.37, L 1.17, D 1.1, I 1.16, E 1.24, F 1.46, V 0.892, Y 1.61
N412: Q 1.37, F 1.23, H 1.1, E 1.52, K 0.831, L 1.62, P 1.56, V 1.33, M 0.405, D 1.53, T 1.09, A 1.53, S 1.48, G 1.63, W 0.786, R 1.57, C 1.11, I 1.21, Y 1.55
S404: H 1.6, A 1.31, V 1.53, Y 0.966, I 1.22, G 1.57, C 1.14, F 0.794, L 1.47, E 1.34, D 1.18, T 1.23, M 1.58, W 1.43, K 1.56, N 1.52
S421: R 1.44, Y 1.61, N 1.6, K 1.45, V 1.38, I 1.52, C 0.549, L 1.62, E 1.56, G 1.38, F 1.08, D 1.62, T 1.12
A414: V 1.48, G 1.21, C 1.59, I 1.33, Y 1.58, F 1.38, L 1.16, D 0.946, W 1.63, E 1.54, M 1.56, K 1.55, S 1.57, R 1.58
A417: P 1.2, G 1.47, I 1.51, S 1.25, L 1.51, H 0.849, M 1.47, D 1.41, F 1.15, E 1.22, N 1.55, T 1.55, C 1.24, R 1.6, V 0.845
S422: T 0.705, C 1.44, G 1.49, N 0.705, K 1.53, Q 1.58, I 1.3, W 1.4, F 1.4, L 1.17, A 1.5, R 1.47, D 1.59, V 1.05, E 1.49, Y 1.54
I424: F 1.04, D 1.54, C 1.35, A 1.58
A406: Y 1.07, H 1.6, E 1.45, T 1.42, I 1.6, F 1.4, K 1.28, G 1.33, L 1.57, W 1.46, C 1.52, S 1.41, P 1.21, M 0.606, D 1.4, V 1.52, R 1.59, Q 1.56, N 1.58
G408: Y 1.49, E 1.54, L 1.59, N 1.54, K 1.56, V 1.2, W 1.48, H 1.63, F 1.24, M 1.56, I 1.51, S 1.59, A 1.61, T 1.61, R 1.59
